Test results published in the supplement of paper PMC10065799, “High-throughput profiling of sequence recognition by tyrosine kinases and SH2 domains using bacterial peptide display” (eLife, 2023).

Experiments:
AncSZ = assay: phosphorylation enrichment, bacterial display (enrichment ratio); higher = better substrate or ligand; peptides without Tyr show the background
Hck = Hck (UniProt P08631); assay: as above
c-Abl (mouse) = assay: as above
MERTK = MERTK (UniProt Q12866); assay: as above
FGFR3 = FGFR3 (UniProt P22607); assay: as above
EPHB1 = EPHB1 (UniProt P54762); assay: as above
Jak2 = Jak2 (UniProt O60674); assay: as above
c-Src = assay: as above
FGFR1 = FGFR1 (UniProt P11362); assay: as above
Fer (mouse) = assay: as above
EPHB2 = EPHB2 (UniProt P29323); assay: as above
Fes = Fes (UniProt P07332); assay: as above
Fyn = Fyn (UniProt P06241); assay: as above
SHP2-C SH2 = assay: SH2 binding enrichment of the phosphorylated peptide, bacterial display (enrichment ratio); higher = better substrate or ligand; peptides without Tyr show the background
c-Src SH2 = assay: as above
Grb2 SH2 = Grb2 SH2 (UniProt P62993); assay: as above
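Wherever SH2 binding enrichment of the phosphorylated peptide, bacterial display is given: peptide library displayed on the E. coli surface as eCPX fusions, selected cells deep-sequenced, score is each peptide's frequency after selection divided by its frequency in the input.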
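Wherever phosphorylation enrichment, bacterial display is given: 11-residue human phosphosite peptides and single-mutation variants displayed on the E. coli surface, counted by deep sequencing, each peptide's frequency after selection divided by its frequency in the unselected input library; frequency after pTyr selection over input frequency; kinase dosed for 20-30% of maximal phosphorylation in three min.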

Fes, sequence (P07332 whole entry, looked up): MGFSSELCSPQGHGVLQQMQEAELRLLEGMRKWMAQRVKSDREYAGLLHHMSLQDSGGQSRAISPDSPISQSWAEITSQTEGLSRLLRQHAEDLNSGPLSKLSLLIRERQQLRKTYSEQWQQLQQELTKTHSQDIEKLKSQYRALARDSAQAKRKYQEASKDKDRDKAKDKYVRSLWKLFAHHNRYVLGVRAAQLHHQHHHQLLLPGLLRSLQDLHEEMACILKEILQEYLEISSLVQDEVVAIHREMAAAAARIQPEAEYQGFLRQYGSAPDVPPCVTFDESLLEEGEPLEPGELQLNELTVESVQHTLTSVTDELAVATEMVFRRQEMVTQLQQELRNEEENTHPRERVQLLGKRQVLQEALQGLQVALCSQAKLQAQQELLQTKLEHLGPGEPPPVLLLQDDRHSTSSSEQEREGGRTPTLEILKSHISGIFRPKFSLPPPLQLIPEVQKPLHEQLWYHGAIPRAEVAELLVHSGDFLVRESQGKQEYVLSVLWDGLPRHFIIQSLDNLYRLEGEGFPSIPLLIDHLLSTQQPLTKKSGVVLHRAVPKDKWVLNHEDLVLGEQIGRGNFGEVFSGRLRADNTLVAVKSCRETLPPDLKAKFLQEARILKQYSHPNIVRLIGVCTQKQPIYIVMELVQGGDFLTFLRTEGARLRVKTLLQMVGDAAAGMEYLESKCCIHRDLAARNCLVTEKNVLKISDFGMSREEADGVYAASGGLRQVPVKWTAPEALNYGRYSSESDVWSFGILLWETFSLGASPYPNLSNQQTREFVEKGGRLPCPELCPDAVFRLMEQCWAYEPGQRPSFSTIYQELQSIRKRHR
FGFR3, sequence (P22607 whole entry, looked up): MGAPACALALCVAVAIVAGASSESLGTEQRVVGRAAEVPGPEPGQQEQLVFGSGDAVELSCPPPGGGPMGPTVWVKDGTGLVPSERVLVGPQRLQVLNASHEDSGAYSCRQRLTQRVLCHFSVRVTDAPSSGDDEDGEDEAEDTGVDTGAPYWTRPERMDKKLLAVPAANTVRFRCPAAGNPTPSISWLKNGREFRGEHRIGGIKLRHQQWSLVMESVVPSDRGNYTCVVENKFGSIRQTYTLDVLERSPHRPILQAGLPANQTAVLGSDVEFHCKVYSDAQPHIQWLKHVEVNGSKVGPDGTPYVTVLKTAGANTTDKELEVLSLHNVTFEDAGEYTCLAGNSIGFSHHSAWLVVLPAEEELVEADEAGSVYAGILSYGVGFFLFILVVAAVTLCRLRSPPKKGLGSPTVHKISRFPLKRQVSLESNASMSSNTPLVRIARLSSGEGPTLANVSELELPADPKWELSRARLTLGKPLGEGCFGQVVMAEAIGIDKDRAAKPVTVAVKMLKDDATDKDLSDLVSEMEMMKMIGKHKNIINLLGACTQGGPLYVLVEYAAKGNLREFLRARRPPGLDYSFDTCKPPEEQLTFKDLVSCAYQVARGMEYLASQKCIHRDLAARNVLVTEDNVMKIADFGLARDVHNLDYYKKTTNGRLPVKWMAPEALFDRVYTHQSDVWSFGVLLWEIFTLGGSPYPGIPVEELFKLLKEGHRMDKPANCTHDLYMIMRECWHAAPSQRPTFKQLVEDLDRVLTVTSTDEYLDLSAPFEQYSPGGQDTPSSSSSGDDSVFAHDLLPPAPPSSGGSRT
EPHB1, sequence (P54762 whole entry, looked up): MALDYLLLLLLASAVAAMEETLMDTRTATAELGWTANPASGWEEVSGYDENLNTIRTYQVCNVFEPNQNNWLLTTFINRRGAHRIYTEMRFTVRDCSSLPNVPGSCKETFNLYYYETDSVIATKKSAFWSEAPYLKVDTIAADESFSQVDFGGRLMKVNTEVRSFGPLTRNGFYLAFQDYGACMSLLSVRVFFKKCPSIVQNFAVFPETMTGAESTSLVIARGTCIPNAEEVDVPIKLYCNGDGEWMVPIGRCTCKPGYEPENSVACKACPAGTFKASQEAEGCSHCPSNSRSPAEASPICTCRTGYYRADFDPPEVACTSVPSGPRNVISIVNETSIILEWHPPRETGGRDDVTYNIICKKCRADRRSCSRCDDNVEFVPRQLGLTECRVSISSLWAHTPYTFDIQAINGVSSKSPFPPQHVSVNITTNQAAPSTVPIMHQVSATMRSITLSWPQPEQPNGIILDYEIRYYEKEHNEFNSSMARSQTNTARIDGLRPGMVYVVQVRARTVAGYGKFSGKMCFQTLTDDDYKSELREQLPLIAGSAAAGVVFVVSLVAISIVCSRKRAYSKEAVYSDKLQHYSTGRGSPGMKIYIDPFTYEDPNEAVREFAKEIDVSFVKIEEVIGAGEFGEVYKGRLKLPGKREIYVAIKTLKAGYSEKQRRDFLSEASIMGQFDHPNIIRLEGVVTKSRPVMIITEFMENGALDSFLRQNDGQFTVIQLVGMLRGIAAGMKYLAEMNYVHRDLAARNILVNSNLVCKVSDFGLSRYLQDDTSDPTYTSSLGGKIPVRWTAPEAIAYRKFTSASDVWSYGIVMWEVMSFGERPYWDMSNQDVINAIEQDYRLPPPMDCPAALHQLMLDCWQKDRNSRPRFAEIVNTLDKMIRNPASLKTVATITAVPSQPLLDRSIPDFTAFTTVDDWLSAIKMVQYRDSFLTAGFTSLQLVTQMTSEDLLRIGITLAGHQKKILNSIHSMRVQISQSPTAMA
Jak2, sequence (O60674 whole entry, looked up): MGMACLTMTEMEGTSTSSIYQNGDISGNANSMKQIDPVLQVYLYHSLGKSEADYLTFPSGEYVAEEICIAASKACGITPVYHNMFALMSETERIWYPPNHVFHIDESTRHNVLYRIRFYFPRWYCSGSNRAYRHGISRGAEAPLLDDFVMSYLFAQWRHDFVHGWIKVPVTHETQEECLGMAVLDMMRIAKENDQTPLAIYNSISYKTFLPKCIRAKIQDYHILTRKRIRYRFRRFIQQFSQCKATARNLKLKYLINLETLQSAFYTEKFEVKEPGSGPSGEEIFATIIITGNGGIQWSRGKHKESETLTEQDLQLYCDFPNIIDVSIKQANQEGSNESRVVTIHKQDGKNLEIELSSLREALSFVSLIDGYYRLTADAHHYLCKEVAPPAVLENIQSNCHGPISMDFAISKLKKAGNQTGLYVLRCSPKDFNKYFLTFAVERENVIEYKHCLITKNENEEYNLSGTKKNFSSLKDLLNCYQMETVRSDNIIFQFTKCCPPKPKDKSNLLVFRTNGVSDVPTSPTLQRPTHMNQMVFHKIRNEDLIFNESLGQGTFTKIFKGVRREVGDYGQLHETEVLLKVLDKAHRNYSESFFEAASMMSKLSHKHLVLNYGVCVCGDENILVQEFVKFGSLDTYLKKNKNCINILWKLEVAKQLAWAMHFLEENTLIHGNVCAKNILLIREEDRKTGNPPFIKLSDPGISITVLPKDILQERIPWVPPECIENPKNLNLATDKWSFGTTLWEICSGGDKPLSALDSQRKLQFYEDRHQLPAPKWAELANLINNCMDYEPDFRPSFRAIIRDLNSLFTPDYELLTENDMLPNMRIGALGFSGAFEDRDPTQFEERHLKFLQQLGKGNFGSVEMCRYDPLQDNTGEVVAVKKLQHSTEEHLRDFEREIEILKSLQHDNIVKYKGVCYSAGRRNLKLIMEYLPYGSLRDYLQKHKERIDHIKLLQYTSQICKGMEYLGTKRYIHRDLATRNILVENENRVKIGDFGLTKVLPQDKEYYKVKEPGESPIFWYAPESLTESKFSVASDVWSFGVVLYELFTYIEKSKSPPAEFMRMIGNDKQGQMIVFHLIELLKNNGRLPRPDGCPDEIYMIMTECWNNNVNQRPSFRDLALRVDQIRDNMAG
Fyn, sequence (P06241 whole entry, looked up): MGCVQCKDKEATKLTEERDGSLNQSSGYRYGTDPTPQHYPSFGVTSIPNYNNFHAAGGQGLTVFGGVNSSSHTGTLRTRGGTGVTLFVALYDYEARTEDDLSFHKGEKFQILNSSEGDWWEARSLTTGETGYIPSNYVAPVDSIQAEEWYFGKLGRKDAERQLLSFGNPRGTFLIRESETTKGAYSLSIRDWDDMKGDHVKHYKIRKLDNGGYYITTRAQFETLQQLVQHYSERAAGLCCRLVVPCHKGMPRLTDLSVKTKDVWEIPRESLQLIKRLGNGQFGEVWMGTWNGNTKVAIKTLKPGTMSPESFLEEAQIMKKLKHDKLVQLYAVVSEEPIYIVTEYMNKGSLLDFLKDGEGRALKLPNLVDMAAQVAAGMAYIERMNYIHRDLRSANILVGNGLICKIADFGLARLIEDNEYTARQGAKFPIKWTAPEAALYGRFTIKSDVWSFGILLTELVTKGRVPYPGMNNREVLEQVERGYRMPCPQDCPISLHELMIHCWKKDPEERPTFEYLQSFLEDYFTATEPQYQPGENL
Hck, sequence (P08631 whole entry, looked up): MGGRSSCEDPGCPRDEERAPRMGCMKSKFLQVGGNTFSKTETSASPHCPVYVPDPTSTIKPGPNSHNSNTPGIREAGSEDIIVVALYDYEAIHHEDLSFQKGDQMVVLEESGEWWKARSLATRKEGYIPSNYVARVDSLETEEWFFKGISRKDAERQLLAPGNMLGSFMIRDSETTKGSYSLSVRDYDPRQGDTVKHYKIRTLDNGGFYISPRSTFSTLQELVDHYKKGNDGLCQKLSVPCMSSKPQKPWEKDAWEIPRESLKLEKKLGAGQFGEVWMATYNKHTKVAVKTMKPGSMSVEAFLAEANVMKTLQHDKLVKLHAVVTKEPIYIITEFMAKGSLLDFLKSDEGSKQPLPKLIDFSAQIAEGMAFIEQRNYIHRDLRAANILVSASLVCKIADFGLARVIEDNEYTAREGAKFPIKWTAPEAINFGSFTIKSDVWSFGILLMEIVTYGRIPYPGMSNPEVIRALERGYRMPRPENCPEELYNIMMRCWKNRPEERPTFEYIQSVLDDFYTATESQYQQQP
Grb2 SH2, sequence (P62993 whole entry, looked up, the tested form may be a part): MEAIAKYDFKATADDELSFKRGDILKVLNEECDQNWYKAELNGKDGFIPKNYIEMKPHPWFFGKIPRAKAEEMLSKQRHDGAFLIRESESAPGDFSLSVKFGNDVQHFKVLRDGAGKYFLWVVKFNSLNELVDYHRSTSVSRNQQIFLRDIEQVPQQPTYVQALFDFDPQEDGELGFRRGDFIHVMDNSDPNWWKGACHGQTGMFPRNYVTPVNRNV

Row | Sequence | phosphorylation enrichment (AncSZ) | phosphorylation enrichment (Hck) | phosphorylation enrichment (c-Abl (mouse)) | phosphorylation enrichment (MERTK) | phosphorylation enrichment (FGFR3) | phosphorylation enrichment (EPHB1) | phosphorylation enrichment (Jak2) | phosphorylation enrichment (c-Src) | phosphorylation enrichment (FGFR1) | phosphorylation enrichment (Fer (mouse)) | phosphorylation enrichment (EPHB2) | phosphorylation enrichment (Fes) | phosphorylation enrichment (Fyn) | SH2 binding enrichment (SHP2-C SH2) | SH2 binding enrichment (c-Src SH2) | SH2 binding enrichment (Grb2 SH2)
1 | MDNQEYKDAFK [BRDT_Y331_YF] | 1.15 | 0.584 | 1.22 | 0.442 | 0.67 | 0.715 | 1.22 | 0.526 | 0.504 | 0.505 | 0.602 | 1.39 | 0.493 | 0.721 | 0.532 | 1.07
2 | MFFSKYDRDND [FGB_Y408_T407K] | 0.817 | 0.589 | 0.717 | 0.486 | 0.66 | 0.493 | 0.845 | 0.426 | 0.47 | 0.51 | 0.488 | 1.01 | 0.501 | 0.801 | 0.447 | 1.07
3 | MGRVKYGAYIN [GLB1_Y485_N484K] | 0.506 | 0.401 | 0.461 | 0.358 | 0.47 | 0.282 | 0.447 | 0.378 | 0.374 | 0.416 | 0.408 | 0.569 | 0.472 | 1.51 | 1.38 | 2.27
4 | MKMISYETLIA [DOCK10_Y1350_T1347M] | 0.784 | 0.581 | 0.65 | 0.485 | 0.629 | 0.659 | 0.888 | 0.421 | 0.634 | 0.467 | 0.566 | 0.948 | 0.468 | 1.24 | 2 | 0.752
5 | MSFDRYMAICH [OR2A5_Y123_YF] | 0.897 | 0.527 | 0.69 | 0.498 | 0.68 | 0.868 | 0.878 | 0.497 | 0.567 | 0.557 | 0.669 | 1.08 | 0.494 | 0.688 | 0.859 | 0.829
6 | MSPPGYKLLTG [GJA1_Y286_V289L] | 0.625 | 0.405 | 0.731 | 0.465 | 0.599 | 0.542 | 0.669 | 0.503 | 0.515 | 0.474 | 0.891 | 0.756 | 0.454 | 0.67 | 0.488 | 0.828
7 | MSSLYYANTLF [HOXB7_Y6] | 1.32 | 5.94 | 8.46 | 10.8 | 5.82 | 10.7 | 3.08 | 4.4 | 6.15 | 5.33 | 12.8 | 1.01 | 4.32 | 0.739 | 1.24 | 2.87
8 | MSYDRYMAVCH [OR2A5_Y123_I126V] | 0.867 | 0.507 | 0.509 | 0.44 | 0.57 | 0.879 | 0.891 | 0.464 | 0.438 | 0.595 | 0.751 | 0.878 | 0.475 | 0.687 | 0.993 | 0.779
9 | MVSLFYGTALF [OR10C1_Y251] | 1.32 | 1.45 | 1.21 | 0.707 | 0.906 | 0.757 | 1.2 | 2.44 | 0.51 | 1.18 | 0.708 | 1.32 | 2.21 | 0.778 | 0.431 | 0.865
10 | MYRVQYNSSVD [LRFN1_Y458_Q455R] | 0.785 | 0.435 | 0.629 | 0.375 | 0.715 | 0.487 | 0.68 | 0.411 | 0.433 | 0.403 | 0.437 | 0.876 | 0.435 | 0.869 | 0.613 | 0.659
11 | NDFGNYNNQSS [HNRNPA1_Y318] | 0.523 | 0.417 | 0.874 | 0.285 | 0.419 | 0.392 | 0.49 | 0.343 | 0.417 | 0.322 | 0.352 | 0.695 | 0.333 | 0.68 | 0.537 | 0.826
12 | NEANKYQISVN [FGB_Y368] | 0.691 | 0.391 | 0.592 | 0.371 | 0.459 | 0.39 | 0.654 | 0.425 | 0.372 | 0.369 | 0.411 | 0.816 | 0.435 | 0.717 | 0.481 | 0.763
13 | NEKNIYGVPLM [BMPR2_Y247_R248G] | 0.616 | 6.04 | 19.6 | 2.83 | 0.624 | 0.431 | 0.627 | 3.45 | 0.511 | 3.26 | 1.7 | 0.717 | 4.93 | 0.785 | 0.478 | 0.808
14 | NESVDSRATFP [MET_Y1003_Y1003S] | 0.783 | 0.492 | 0.661 | 0.531 | 0.583 | 0.427 | 0.826 | 0.48 | 0.485 | 0.376 | 0.597 | 1.1 | 0.442 | 0.625 | 0.48 | 0.925
15 | NFPGGYSGSVK [MCPH1_Y606_L602F] | 0.354 | 0.406 | 0.529 | 0.365 | 0.47 | 0.357 | 0.539 | 0.451 | 0.486 | 0.368 | 0.379 | 0.547 | 0.44 | 0.667 | 0.59 | 0.802
16 | NFRTTYINANE [KCNH2_Y475_V476I] | 0.733 | 0.462 | 0.711 | 0.476 | 0.506 | 0.566 | 0.843 | 0.584 | 0.528 | 0.383 | 0.435 | 0.819 | 0.412 | 1.34 | 0.745 | 5.07
17 | NGRTGDVLQPE [PLCG2_Y1036_Y1036D] | 0.971 | 0.496 | 0.777 | 0.454 | 0.669 | 0.598 | 0.903 | 0.428 | 0.404 | 0.464 | 0.468 | 1.05 | 0.39 | 0.526 | 0.347 | 0.579

Row | Sequence | phosphorylation enrichment (AncSZ) | phosphorylation enrichment (Hck) | phosphorylation enrichment (c-Abl (mouse)) | phosphorylation enrichment (MERTK) | phosphorylation enrichment (FGFR3) | phosphorylation enrichment (EPHB1) | phosphorylation enrichment (Jak2) | phosphorylation enrichment (c-Src) | phosphorylation enrichment (FGFR1) | phosphorylation enrichment (Fer (mouse)) | phosphorylation enrichment (EPHB2) | phosphorylation enrichment (Fes) | phosphorylation enrichment (Fyn) | SH2 binding enrichment (SHP2-C SH2) | SH2 binding enrichment (c-Src SH2) | SH2 binding enrichment (Grb2 SH2)
18 | NHYKIYNLCAE [PTEN_Y68] | 0.579 | 0.85 | 0.547 | 0.407 | 0.77 | 0.432 | 0.493 | 2.05 | 0.409 | 0.439 | 0.442 | 0.784 | 1.61 | 0.826 | 1.2 | 0.941
19 | NIQKKYYRAIL [CHD7_Y1217] | 0.502 | 0.355 | 0.563 | 0.345 | 0.595 | 0.346 | 0.494 | 0.371 | 0.472 | 0.533 | 0.375 | 0.543 | 0.443 | 1.09 | 0.898 | 1.09
20 | NLDCFYQQVTK [SEC16A_Y1041_R1039C] | 1.54 | 1.91 | 0.831 | 0.856 | 0.786 | 1.1 | 1.15 | 1.31 | 0.934 | 2.22 | 1.08 | 1.31 | 0.675 | 0.845 | 0.947 | 1.1
21 | NLSVHYDSSLK [ABCC8_Y1353_R1352H] | 0.952 | 0.453 | 0.548 | 0.339 | 0.603 | 0.579 | 0.612 | 0.342 | 0.522 | 0.437 | 0.82 | 0.922 | 0.424 | 0.547 | 0.509 | 0.793
22 | NLTVNYKKNLT [SQOR_Y259_I264T] | 0.883 | 0.539 | 1.03 | 0.547 | 0.615 | 0.429 | 1.05 | 0.502 | 0.376 | 0.503 | 0.629 | 1.24 | 0.608 | 0.482 | 0.381 | 0.93
23 | NNIDYYKNTTN [FGFR2_Y657_K659N] | 0.756 | 0.512 | 0.446 | 0.32 | 0.605 | 0.359 | 0.596 | 0.387 | 0.552 | 0.648 | 0.473 | 0.745 | 0.417 | 0.73 | 0.546 | 1.27
24 | NNRVFYDNSDR [RS1_Y177_G178D] | 0.603 | 0.4 | 0.453 | 0.42 | 0.471 | 0.412 | 0.499 | 0.409 | 0.435 | 0.471 | 0.442 | 0.628 | 0.45 | 0.744 | 0.675 | 0.883
25 | NNVEQYQAMVT [TPR_Y965_S960N] | 1.08 | 0.551 | 0.683 | 0.523 | 0.721 | 0.599 | 0.779 | 0.485 | 0.581 | 0.528 | 0.634 | 1.14 | 0.542 | 0.765 | 0.754 | 0.67
26 | NPPGMHPVTGP [LPP_Y346_Y346H] | 0.534 | 0.28 | 0.997 | 0.35 | 0.331 | 0.299 | 0.474 | 0.358 | 0.361 | 0.286 | 0.332 | 0.516 | 0.353 | 0.747 | 0.45 | 0.861
27 | NPQKSYFIHLF [WAS_Y83_R86H_YF] | 0.93 | 0.431 | 0.77 | 0.384 | 0.73 | 0.644 | 1.29 | 0.399 | 0.475 | 0.449 | 0.512 | 1.32 | 0.396 | 1.08 | 0.604 | 1.19
28 | NPQKSYLIRLY [WAS_Y83_F84L] | 0.827 | 0.47 | 0.522 | 0.388 | 0.65 | 0.603 | 0.74 | 0.374 | 0.471 | 0.395 | 0.49 | 0.989 | 0.408 | 1.15 | 0.874 | 1.22
29 | NPSYNYEIVNR [DYNC1H1_Y3379] | 0.898 | 0.737 | 0.562 | 0.725 | 0.572 | 13 | 0.656 | 0.519 | 0.552 | 1.26 | 6.48 | 0.776 | 0.479 | 0.602 | 0.82 | 0.675
30 | NTFEKYLEEEF [TF_Y669_G671E_YF] | 1.25 | 0.497 | 0.692 | 0.426 | 0.754 | 0.6 | 1.17 | 0.495 | 0.407 | 0.551 | 0.61 | 1.26 | 0.389 | 0.66 | 0.572 | 0.781
31 | NTVDFYDLFGG [PTPN11_Y63_G60V_YF] | 1.06 | 3.05 | 0.576 | 1.23 | 0.644 | 0.576 | 0.926 | 2.56 | 0.458 | 0.953 | 0.618 | 0.951 | 4.46 | 0.812 | 0.665 | 0.997
32 | NVKGIYAVADV [GSR_Y371_G374A] | 0.977 | 3.79 | 16.5 | 6.08 | 0.687 | 2.06 | 0.678 | 3.12 | 0.506 | 2.06 | 3.77 | 0.82 | 3.67 | 0.599 | 1.44 | 0.826
33 | NYGTNYRVGSS [CPO_Y278_K273N] | 0.458 | 0.465 | 0.372 | 0.368 | 0.389 | 0.493 | 0.441 | 0.425 | 0.357 | 0.719 | 0.681 | 0.503 | 0.463 | 0.639 | 0.55 | 0.924
